Measured values: paper PMC9060444 (2022)

How the values were obtained:
[1] = molecular target: GST-ElpB (B. burgdorferi strain B31); assay: SPR; Biacore T200; GST-ElpB or GST-ElpQ immobilised on the sensor chip; C1 complex (twofold series 0.6 to 150 nM), C1r or C1s enzyme or proenzyme injected as analyte; steady-state affinity fits; triplicate
[2] = molecular target: GST-ElpQ (B. burgdorferi strain B31); assay: as above
[3] = molecular target: human C1s enzyme (activated C1s) (human)
[4] = molecular target: human complement C1 complex (human) (UniProt P02745)
[5] = molecular target: human C1r enzyme (activated C1r) (human); assay: ELISA; ELISA-type binding assay: GST-fusion proteins on wells coated with human C1 complex, C1q, C1r enzyme or C1s enzyme; apparent KD by nonlinear regression (GraphPad Prism)
[6] = molecular target: human complement C1 complex (human) (UniProt P02745); assay: as above
[7] = molecular target: human C1s enzyme (activated C1s) (human); assay: as above
[8] = molecular target: T1, human C1s enzyme (activated C1s) (human); assay: SPR
T1 chain 1: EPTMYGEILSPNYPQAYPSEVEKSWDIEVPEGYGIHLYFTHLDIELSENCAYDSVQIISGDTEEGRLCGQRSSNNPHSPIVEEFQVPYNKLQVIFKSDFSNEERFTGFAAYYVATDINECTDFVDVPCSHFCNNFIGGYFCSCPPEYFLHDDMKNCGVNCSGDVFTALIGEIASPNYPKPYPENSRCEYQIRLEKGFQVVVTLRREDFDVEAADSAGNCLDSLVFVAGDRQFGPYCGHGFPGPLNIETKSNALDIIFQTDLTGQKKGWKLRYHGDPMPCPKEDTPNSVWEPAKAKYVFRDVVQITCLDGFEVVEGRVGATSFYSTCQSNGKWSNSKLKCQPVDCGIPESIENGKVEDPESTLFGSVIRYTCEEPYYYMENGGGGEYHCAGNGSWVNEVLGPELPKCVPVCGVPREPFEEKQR
T1 chain 2: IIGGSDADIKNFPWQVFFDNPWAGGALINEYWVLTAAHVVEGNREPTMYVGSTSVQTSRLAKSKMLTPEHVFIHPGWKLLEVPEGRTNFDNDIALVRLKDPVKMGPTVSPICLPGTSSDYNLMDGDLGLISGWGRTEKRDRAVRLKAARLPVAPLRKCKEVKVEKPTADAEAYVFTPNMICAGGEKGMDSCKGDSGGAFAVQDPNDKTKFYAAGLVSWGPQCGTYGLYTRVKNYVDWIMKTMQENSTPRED

In the case of human C1s enzyme (activated C1s), the Kd [1] is reported as 3.9 nM and the Kd [2] is reported as 4.5 nM.

tagless ElpB (natural protein) was tested, and the IC50 of inhibition of the cleavage of C2 by C1s enzyme (SDS/PAGE) [3] was 870 nM.

With BBK32-C (domain or fragment) the IC50 of inhibition of C4b deposition from normal human serum on IgM-coated wells (ELISA); by the table's footnote based on the non-GST-tagged BBK32-C construct [4] was 18 nM.

Work on human C1s proenzyme yielded a Kd [1] of 270 nM and a Kd [2] of 170 nM.

Work on GST-ElpB (natural protein) yielded an IC50 of inhibition of C3b deposition from normal human serum on IgM-coated wells (ELISA) [4] of 570 nM, an IC50 of inhibition of C4b deposition from normal human serum on IgM-coated wells (ELISA) [4] of 330 nM and an IC50 of inhibition of C5b-9 deposition from normal human serum on IgM-coated wells (ELISA) [4] of 300 nM. The IC50 of inhibition of classical-pathway lysis of antibody-sensitised sheep erythrocytes by normal human serum [4] was 1600 nM, the Kd [5] was 41 nM and the Kd [6] was 3.4 nM. The Kd [7] was 6.7 nM.

Work on GST-ElpQ (natural protein) yielded an IC50 of inhibition of C3b deposition from normal human serum on IgM-coated wells (ELISA) [4] of 450 nM, an IC50 of inhibition of C4b deposition from normal human serum on IgM-coated wells (ELISA) [4] of 260 nM and an IC50 of inhibition of C5b-9 deposition from normal human serum on IgM-coated wells (ELISA) [4] of 1000 nM. For the same molecule, the IC50 of inhibition of classical-pathway lysis of antibody-sensitised sheep erythrocytes by normal human serum [4] was 1500 nM, the Kd [5] was 11 nM and the Kd [6] was 3.8 nM. For the same molecule, the Kd [7] was 4.7 nM.

For “GST-BBK32 (from UniProt O50835 1-354) (natural protein)”, the IC50 of inhibition of C3b deposition from normal human serum on IgM-coated wells (ELISA) [4] was 29 nM, the IC50 of inhibition of C5b-9 deposition from normal human serum on IgM-coated wells (ELISA) [4] was 100 nM and the IC50 of inhibition of classical-pathway lysis of antibody-sensitised sheep erythrocytes by normal human serum [4] was 79 nM.

In the case of “human complement C1 complex (from UniProt P02745 23-245; P02746 28-253; P02747 29-245)”, the Kd [1] is reported as 5.6 nM.

With human C1r enzyme (activated C1r) the Kd [1] was 100 nM and the Kd [2] was 97 nM.

For tagless ElpQ (natural protein), the IC50 of inhibition of the cleavage of C2 (685 nM) by C1s enzyme (6.25 nM), SDS/PAGE densitometry of C2b, ElpQ 16 to 0.13 uM, 1 h at 37 C [3] was 1400 nM and the IC50 of inhibition of the cleavage of C4 (616 nM) by C1s enzyme (6.25 nM), SDS/PAGE densitometry of C4 alpha', ElpQ 25 to 0.20 uM, 1 h at 37 C [3] was 11000 nM.

B1: tagless ElpQ (natural protein)
chain: CKNFATGKDIKQNSEGKIKGFVNKILDPVKDKIASSGTKVDEVAKKLQEEEKEELMQGDDPNGSGINPPPVLPENIHNNALVLKAIEQSDGQQEKKVEEAEAKVEENKEKQENTEENIKEKEIIDEQNKQELAKAKEEEQQKEQKRHQEEQQRKAKAEKEKREREEAEQQKRQQEEEEKRQVDNQIKTLIAKIDEINENIDVIKWQTTVGPQGVIDRITGPVYDDFTNGNNSIRETWEGLEEESEDEGLGKLLKELSDARDALRTKLNEGNKPYTGYEEPKLKESVNVSEIKEDLEKLKSKLEEVKKYLKDSSKFEEIKGYISDSQ
Work on B1 yielded a Kd [8] of 15 nM.

B2: GST-ElpQ (natural protein)
chain: CKNFATGKDIKQNSEGKIKGFVNKILDPVKDKIASSGTKVDEVAKKLQEEEKEELMQGDDPNGSGINPPPVLPENIHNNALVLKAIEQSDGQQEKKVEEAEAKVEENKEKQENTEENIKEKEIIDEQNKQELAKAKEEEQQKEQKRHQEEQQRKAKAEKEKREREEAEQQKRQQEEEEKRQVDNQIKTLIAKIDEINENIDVIKWQTTVGPQGVIDRITGPVYDDFTNGNNSIRETWEGLEEESEDEGLGKLLKELSDARDALRTKLNEGNKPYTGYEEPKLKESVNVSEIKEDLEKLKSKLEEVKKYLKDSSKFEEIKGYISDSQ
Work on B2 yielded a Kd [8] of 16.5 nM.
